Laboratory results as given in the Immune Epitope Database (IEDB).

Tests used:
HLA-C*12:03 = test: IEDB peptide-MHC binding, purified MHC/direct/fluorescence; filed as Kd, often an IC50 or EC50 that approximates it; ≥ and ≤ were set here for values at or beyond the usual limits of such assays; conditions: source organism: Leishmania donovani
HLA-A*01:01 = test: as above
HLA-A*02:01 [1] = test: as above; conditions: source organism: Mycobacterium tuberculosis C
HLA-A*03:01 = test: as above
HLA-A*11:01 = test: as above
HLA-A*29:02 = test: as above; conditions: source organism: Mycobacterium tuberculosis C
HLA-A*31:01 = test: as above
HLA-B*08:01 = test: as above; conditions: source organism: Mycobacterium tuberculosis C
HLA-B*15:01 = test: as above
HLA-B*27:05 = test: as above
HLA-B*40:01 = test: as above
HLA-B*44:02 = test: as above; conditions: source organism: Mycobacterium tuberculosis C
HLA-B*46:01 = test: as above
HLA-B*48:01 = test: as above
HLA-B*57:01 [2] = test: as above
HLA-B*58:01 [3] = test: as above
HLA-C*05:01 = test: as above
HLA-B*15:42 = test: IEDB peptide-MHC binding, purified MHC/competitive/fluorescence; filed as Kd, often an IC50 or EC50 that approximates it; ≥ and ≤ were set here for values at or beyond the usual limits of such assays; conditions: source organism: Mycobacterium tuberculosis H37Ra
HLA-B*45:06 = test: as above; conditions: source organism: Mycobacterium tuberculosis H37Ra
HLA-B*51:01 = test: as above; conditions: source organism: Mycobacterium tuberculosis H37Ra
HLA-B*83:01 = test: as above; conditions: source organism: Mycobacterium tuberculosis H37Ra
HLA-B*57:01 [4] = test: IEDB peptide-MHC binding, purified MHC/competitive/radioactivity; filed as Kd, often an IC50 or EC50 that approximates it; ≥ and ≤ were set here for values at or beyond the usual limits of such assays
HLA-B*58:01 [5] = test: as above
HLA-A*24:03 = test: IEDB peptide-MHC binding, purified MHC/direct/fluorescence; filed as Kd, often an IC50 or EC50 that approximates it; ≥ and ≤ were set here for values at or beyond the usual limits of such assays; conditions: source organism: Mycobacterium tuberculosis
HLA-B*35:01 = test: IEDB peptide-MHC binding, purified MHC/competitive/radioactivity; filed as Kd, often an IC50 or EC50 that approximates it; ≥ and ≤ were set here for values at or beyond the usual limits of such assays; conditions: source organism: Dengue virus 4 Philippines/H241/1956
HLA-B*53:01 = test: as above; conditions: source organism: Dengue virus 4 Philippines/H241/1956
HLA-A*69:01 = test: IEDB peptide-MHC binding, purified MHC/direct/fluorescence; filed as Kd, often an IC50 or EC50 that approximates it; ≥ and ≤ were set here for values at or beyond the usual limits of such assays; conditions: source organism: Bacillus anthracis
HLA-B*08:02 = test: as above; conditions: source organism: Bacillus anthracis str. A0465
HLA-B*15:17 = test: as above; conditions: source organism: Bacillus anthracis
HLA-B*39:01 = test: as above; conditions: source organism: Bacillus anthracis str. A0465
HLA-A*02:01 [6] = test: IEDB peptide-MHC binding, purified MHC/competitive/fluorescence; filed as Kd, often an IC50 or EC50 that approximates it; ≥ and ≤ were set here for values at or beyond the usual limits of such assays; conditions: source organism: Bacillus cereus
HLA-A*02:06 = test: as above; conditions: source organism: Bacillus cereus
[7] = source organism: Mycobacterium tuberculosis C
[8] = source organism: Dengue virus 1 Brazil/97-11/1997
[9] = source organism: Dengue virus 4 Philippines/H241/1956
[10] = source organism: Bacillus anthracis

AMAGNPVVI
Kd (HLA-C*12:03): 727 nM

FPRYPLNVL
Kd (HLA-A*01:01; [7]): ≥ 20000 nM | Kd (HLA-A*02:01 [1]): ≥ 20000 nM | Kd (HLA-A*03:01; [7]): ≥ 20000 nM | Kd (HLA-A*11:01; [7]): ≥ 20000 nM | Kd (HLA-A*29:02): ≥ 20000 nM | Kd (HLA-A*31:01; [7]): ≥ 20000 nM | Kd (HLA-B*08:01): 1040 nM | Kd (HLA-B*15:01; [7]): ≥ 20000 nM | Kd (HLA-B*27:05; [7]): ≥ 20000 nM | Kd (HLA-B*40:01; [7]): ≥ 20000 nM | Kd (HLA-B*44:02): ≥ 20000 nM | Kd (HLA-B*46:01; [7]): ≥ 20000 nM | Kd (HLA-B*48:01; [7]): ≥ 20000 nM | Kd (HLA-B*57:01 [2]; [7]): ≥ 20000 nM | Kd (HLA-B*58:01 [3]; [7]): ≥ 20000 nM | Kd (HLA-C*05:01; source organism: Mycobacterium tuberculosis H37Ra): ≥ 20000 nM | Kd (HLA-B*15:42): ≥ 5000 nM | Kd (HLA-B*45:06): ≥ 5000 nM | Kd (HLA-B*51:01): ≥ 20000 nM | Kd (HLA-B*83:01): 2650 nM

KTSAGVNMCT
Kd (HLA-B*57:01 [4]; [8]): 1130 nM | Kd (HLA-B*58:01 [5]; [8]): 4520 nM

LYDAVAALF
Kd (HLA-A*24:03): ≤ 0.1 nM | Kd (HLA-C*05:01; [7]): 73 nM

MAILGETAW
Kd (HLA-B*35:01): 102 nM | Kd (HLA-B*53:01): 7.05 nM | Kd (HLA-B*57:01 [4]; [9]): 23.5 nM | Kd (HLA-B*58:01 [5]; [9]): 3.47 nM

MSDIFASEV
Kd (HLA-A*01:01; [10]): 7.3 nM | Kd (HLA-A*03:01; [10]): ≥ 20000 nM | Kd (HLA-A*11:01; [10]): ≥ 20000 nM | Kd (HLA-A*31:01; [10]): ≥ 20000 nM | Kd (HLA-A*69:01): ≤ 1 nM | Kd (HLA-B*08:02): ≥ 20000 nM | Kd (HLA-B*15:01; [10]): ≥ 20000 nM | Kd (HLA-B*15:17): 2.1 nM | Kd (HLA-B*27:05; [10]): ≥ 20000 nM | Kd (HLA-B*39:01): 467 nM | Kd (HLA-B*40:01; [10]): ≥ 20000 nM | Kd (HLA-B*46:01; [10]): ≥ 20000 nM | Kd (HLA-B*48:01; [10]): ≥ 20000 nM | Kd (HLA-B*57:01 [2]; [10]): ≥ 20000 nM | Kd (HLA-B*58:01 [3]; [10]): ≥ 20000 nM | Kd (HLA-C*05:01; source organism: Bacillus cereus): ≤ 1 nM | Kd (HLA-A*02:01 [6]): 30.2 nM | Kd (HLA-A*02:06): 12.1 nM

PSVVETLEQM
Kd (HLA-B*58:01 [5]; [8]): 321 nM
